From paper PMC11205257
Read-outs that look alike come from different tables or passages of the source.

How the values were obtained:
[1] = molecular target: GRAB CRF1.0 sensor (human (GPCR scaffold cDNA)); experiment: other fluorescence titration
[2] = molecular target: GRAB CRF1.0 sensor (human (GPCR scaffold cDNA)); experiment: other fluorescence titration; remark: listed apart in the source

EC50 [1]	EC50 [2]	Binder
18.6 nM	33 nM	SEEPPISLDLTFHLLREVLEMARAEQLAQQAHSNRKLMEIIGK [corticotropin-releasing factor (CRF)]
	69 nM	DNPSLSIDLTFHLLRTLLELARTQSQRERAEQNRIIFDSVGK [urocortin 1 (UCN1)]
